No end group written: not given here.
B1: natalizumab scFv (IgG4 humanized), expressed without CyDisCo (scFv, V domains shown)
VH: QVQLVQSGAEVKKPGASVKVSCKASGFNIKDTYIHWVRQAPGQRLEWMGRIDPANGYTKYDPKFQGRVTITADTSASTAYMELSSLRSEDEAVYYCAREGYYGNYGVYAMDYWGQGTLVTVSS
VL: DIQMTQSPSSLSASVGDRVTITCKTSQDINKYMAWYQQTPGKAPRLLIHYTSALQPGIPSRFSGSGSGRDYTFTISSLQPEDIATYYCLQYDNLWTFGQGTKVEIK
notes: VL of natalizumab, as the VL of m5; linker, printed as (Gly4Ser)3; VH of natalizumab, as the VH of m5; expected mass 27755 Da); also called natalizumab - CyDisCo; Tysabri scFv; source: E. coli BW25113 cytoplasm, without CyDisCo (control vector pAG82), purified (IMAC, desalted); not shown: GSH6, C-terminal, kept
B2: IgA1 scFv (human), expressed with CyDisCo (scFv, V domains shown)
VH: EVQLVESGGGLVQPGGSLKLSCAASGFTLSGSNVHWVRQASGKGLEWVGRIKRNAESDATAYAASMRGRLTISRDDSKNTAFLQMNSLKSDDTAMYYCVIRGDVYNRQWGQGTLVTVSS
VL: DIVMTQSPLSLSVTPGEPASISCRSSQSLLRRDGHNDLEWYLQKPGQSPQPLIYLGSTRASGVPDRFSGSGSGTDFTLKIIRVEAEDAGTYYCMQNKQTPLTFGQGTRLEIK
notes: VL of the anti-beta-tubulin IgA1; linker, printed as (Gly4Ser)3; VH of the anti-beta-tubulin IgA1; Expected mass 27342 Da with disulfide bonds; also called IgA1-IgA1; parental scFv IgA1; source: E. coli BW25113 cytoplasm, co-expressed with CyDisCo (Erv1p and PDI), purified (IMAC, desalted)
B3: natalizumab scFv (IgG4 humanized), expressed with CyDisCo (scFv, V domains shown)
VH: B1 VH
VL: B1 VL
notes: VL of natalizumab; linker, printed as (Gly4Ser)3; VH of natalizumab; expected mass 27751 Da); also called natalizumab-natalizumab; Tysabri scFv; source: E. coli BW25113 cytoplasm, co-expressed with CyDisCo (Erv1p and PDI), purified (IMAC, desalted); not shown: GSH6, C-terminal, kept

Assays:
[1] = biological target: HER2 fragment V529-P625, C-terminal GSH6 tag (UniProt P04626); experiment: SPR; Biacore T200; biotinylated HER2 fragment V529-P625 immobilised on streptavidin chip (SA); scFv 0.2-5 μM in 50 mM sodium phosphate pH 7.4; triplicate
[2] = biological target: T1, full length human ITGA4 (antigen CD49, α4 subunit of VLA-4 receptor) (Homo sapiens, UniProt P13612); experiment: far-Western, overlay or dot blot; dot blot: 80 ng full length ITGA4 spotted on Immobilon-P; 6 μg/mL scFv in TBS, 1 h, room temperature; detected with HRP-labelled anti-His tag antibody; conditions: both partners purified
T1 construct: integrin alpha-4 (ITGA4, CD49, α4 subunit of VLA-4), human, full length; also called ITG4A; ITGA4 full length

[3] = biological target: T2, synthetic peptide DATAEEEEDFGEEA corresponding to residues 427-440 of human β-tubulin (Homo sapiens); experiment: SPR; Biacore T200; C-terminally biotinylated β-tubulin peptide immobilised on streptavidin chip (SA); scFv 0.375-12 μM in 50 mM sodium phosphate pH 7.4; conditions: both partners purified
T2 construct: also called β-tubulin peptide; source: synthetic peptide (Fmoc chemistry, ABI433A)
T2 chain: DATAEEEEDFGEEA-biotin

Molecule | binding result [2] | also measured
natalizumab framework-trastuzumab CDRs hybrid scFv, expressed with CyDisCo |  | Kd [1]: 147 nM
B1 | binds | 
B2 |  | Kd [3]: 3560 nM
B3 | binds | 
